Source: US20150344570A1 (published 2015)

T1: FcγRIIb extracellular domain with C-terminal His tag (human, UniProt P31994 43-217)
T1 construct: extracellular domain; also called 2b; FcgRIIb; not shown: His tag at the C terminus
T1 sequence (looked up): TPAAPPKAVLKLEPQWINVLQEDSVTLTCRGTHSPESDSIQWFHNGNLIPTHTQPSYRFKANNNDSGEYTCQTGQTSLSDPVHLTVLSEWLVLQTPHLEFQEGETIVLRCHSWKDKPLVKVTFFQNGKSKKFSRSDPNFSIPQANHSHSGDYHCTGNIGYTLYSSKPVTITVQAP

T2: FcγRIIa H (human, UniProt P12318 34-217)
T2 construct: extracellular domain; also called FcgRIIa H; FcγRIIa type H
T2 sequence (looked up): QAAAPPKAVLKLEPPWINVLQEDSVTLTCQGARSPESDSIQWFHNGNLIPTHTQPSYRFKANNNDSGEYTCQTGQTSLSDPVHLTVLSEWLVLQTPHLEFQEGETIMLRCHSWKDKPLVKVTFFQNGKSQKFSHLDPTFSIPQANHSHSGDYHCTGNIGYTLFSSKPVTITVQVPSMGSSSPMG

T3: FcγRIIb (human, UniProt P31994 43-217)
T3 construct: extracellular domain; also called FcgRIIb; 2b
T3 sequence (looked up): T1 sequence (looked up)

B1: GpH7-A5/GpH7-B3 variant G236_13S/GpL16-k0 (antibody, human IgG1, kappa)
heavy 1: not shown
heavy 2: not shown
light: DIVMTQSPLSLPVTPGEPASISCQASESLVHSNRNTYLHWYLQKPGQSPQLLIYKVSNRFSGVPDRFSGSGSGTDFTLKISRVEAEDVGVYYCSQNTHVPPTFGQGTKVEIERTVAAPSVFIFPPSDEQLKSGTASVVCLLNNFYPREAKVQWKVDNALQSGNSQESVTEQDSKDSTYSLSSTLTLSKADYEKHKVYACEVTHQGLSSPVTKSFNRGEC
notes: IgG1, anti-glypican-3; also called He Ab
B2: GpH7-A5/GpH7-B3 variant G237_05P/GpL16-k0 (antibody, human IgG1, kappa)
heavy 1: not shown
heavy 2: not shown
light: B1 light
notes: as for B1
B3: GpH7-A5/GpH7-B3 variant G236_18N/GpL16-k0 (antibody, human IgG1, kappa)
heavy 1: not shown
heavy 2: not shown
light: B1 light
notes: as for B1
B4: GpH7-A5/GpH7-B3 variant P238_01G/GpL16-k0 (antibody, human IgG1, kappa)
heavy 1: not shown
heavy 2: not shown
light: B1 light
notes: Heterodimerized antibody, alteration in one H chain only; also called He Ab P238G
B5: GpH7-A5/GpH7-B3 variant G237_15Y/GpL16-k0 (antibody, human IgG1, kappa)
heavy 1: not shown
heavy 2: not shown
light: B1 light
notes: as for B1
B6: GpH7-A5/GpH7-B3 variant G237_04F/GpL16-k0 (antibody, human IgG1, kappa)
heavy 1: not shown
heavy 2: not shown
light: B1 light
notes: as for B1
B7: GpH7-A5/GpH7-B3 variant G237_06M/GpL16-k0 (antibody, human IgG1, kappa)
heavy 1: not shown
heavy 2: not shown
light: B1 light
notes: as for B1
B8: GpH7-A5/GpH7-B3 variant P238_02A/GpL16-k0 (antibody, human IgG1, kappa)
heavy 1: not shown
heavy 2: not shown
light: B1 light
notes: as for B1
B9: GpH7-A5/GpH7-B3 variant G237_19Q/GpL16-k0 (antibody, human IgG1, kappa)
heavy 1: not shown
heavy 2: not shown
light: B1 light
notes: as for B1
B10: GpH7-A5/GpH7-B3 variant P238_06M/GpL16-k0 (antibody, human IgG1, kappa)
heavy 1: not shown
heavy 2: not shown
light: B1 light
notes: Heterodimerized antibody, alteration in one H chain only; also called He Ab P238M
B11: GpH7-A5/GpH7-B3 variant P238_03V/GpL16-k0 (antibody, human IgG1, kappa)
heavy 1: not shown
heavy 2: not shown
light: B1 light
notes: Heterodimerized antibody, alteration in one H chain only; also called He Ab P238V
B12: GpH7-A5/GpH7-B3 variant G237_10E/GpL16-k0 (antibody, human IgG1, kappa)
heavy 1: not shown
heavy 2: not shown
light: B1 light
notes: as for B1
B13: GpH7-A5/GpH7-B3 variant L235_16H/GpL16-k0 (antibody, human IgG1, kappa)
heavy 1: not shown
heavy 2: not shown
light: B1 light
notes: as for B1
B14: GpH7-A5/GpH7-B3 variant L234_09D/GpL16-k0 (antibody, human IgG1, kappa)
heavy 1: not shown
heavy 2: not shown
light: B1 light
notes: as for B1
B15: GpH7-A5/GpH7-B3 variant P238_01G/GpL16-k0 (antibody, human IgG1, kappa)
heavy 1: not shown
heavy 2: not shown
light: B1 light
notes: as for B1
B16: GpH7-A5/GpH7-B3 variant P238_04F/GpL16-k0 (antibody, human IgG1, kappa)
heavy 1: not shown
heavy 2: not shown
light: B1 light
notes: Heterodimerized antibody, alteration in one H chain only; also called He Ab P238F

How the values were obtained:
[1] = biological target: T4, FcγRIIIa extracellular domain with C-terminal His tag (human, UniProt P08637 17-208); assay: SPR (Biacore), relative to GpH7-A5/GpH7-B3/GpL16-k0 = 100
T4 construct: extracellular domain; also called 3a; FcgRIIIa; not shown: His tag at the C terminus
T4 sequence (P08637 17-208): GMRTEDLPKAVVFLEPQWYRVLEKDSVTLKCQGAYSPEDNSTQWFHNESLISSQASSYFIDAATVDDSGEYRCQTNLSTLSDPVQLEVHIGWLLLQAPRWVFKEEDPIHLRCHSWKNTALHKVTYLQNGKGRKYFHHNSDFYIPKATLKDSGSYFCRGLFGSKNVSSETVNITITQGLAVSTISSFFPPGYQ

[2] = biological target: T1, FcγRIIb extracellular domain with …; assay: as above
[3] = biological target: T4, FcγRIIIa extracellular domain with …; assay: SPR (Biacore); ratio of He/Con_3a (FcγRIIIa) to He/Con_2b (FcγRIIb)
[4] = biological target: T2, FcγRIIa H; assay: SPR (Biacore); He/Con_2aH divided by He/Con_2b (FcγRIIa H over FcγRIIb)
[5] = biological target: T2, FcγRIIa H; assay: SPR (Biacore), antibody captured, FcγR analyte; binding relative to GpH7-A5/GpH7-B3/GpL16-k0 = 100
[6] = biological target: T3, FcγRIIb; assay: as above

Binder | He/Con_3a [1] | He/Con_2b [2] | He_3a/2b (IIIa/IIb) [3] | He_2aH/2b (IIaH/IIb) [4] | He/Con_2aH [5] | He/Con_2b [6]
B1 | 64.8 % (control = 100) | 96.7 % (control = 100) | 0.67 |  |  | 
B2 | 10.9 % (control = 100) | 24.6 % (control = 100) | 0.44 |  |  | 
B3 | 37.8 % (control = 100) | 96.4 % (control = 100) | 0.39 |  |  | 
B4 |  |  |  | 0.66 ratio | 37.3 % of control | 56 % of control
B5 | 22.1 % (control = 100) | 152 % (control = 100) | 0.14 |  |  | 
B6 | 25.3 % (control = 100) | 149 % (control = 100) | 0.17 |  |  | 
B7 | 31.9 % (control = 100) | 130 % (control = 100) | 0.25 |  |  | 
B8 | 31.4 % (control = 100) | 57.4 % (control = 100) | 0.55 |  |  | 
B9 | 43.3 % (control = 100) | 108 % (control = 100) | 0.4 |  |  | 
B10 |  |  |  | 0.27 ratio | 47.6 % of control | 174 % of control
B11 |  |  |  | 0.74 ratio | 89 % of control | 120 % of control
B12 | 25.4 % (control = 100) | 114 % (control = 100) | 0.22 |  |  | 
B13 | 59.1 % (control = 100) | 76.9 % (control = 100) | 0.77 |  |  | 
B14 | 117 % (control = 100) | 150 % (control = 100) | 0.78 |  |  | 
B15 | 33 % (control = 100) | 56 % (control = 100) | 0.59 |  |  | 
B16 |  |  |  | 0.21 ratio | 65.4 % of control | 312 % of control
